The nanobody polyreactivity screen of Harvey et al. (2022)

Test: yeast display, Sf9 membrane polyspecificity reagent, FACS + sequencing; frameworks hold sequencing errors
Outline: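 Synthetic nanobody libraries on Saccharomyces cerevisiae BJ5465 were galactose-induced for 36–48 hours, stained 1 hour at 4 °C with 10% biotinylated, detergent-solubilized Sf9 membrane reagent and enriched on streptavidin microbeads. FACS then separated cells into low and high (top ~1%) gates by anti-HA (expression) and streptavidin (reagent binding) fluorescence. Genes were colony-PCR amplified, MiSeq 2 × 250 sequenced and CDR-length filtered. A clone's polyreactivity label is that of its gate of origin.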

| Sequence | polyreactivity (PSR sort gate) |
| --- | --- |
| QVQLVESGGGLVEAVGSLRLSCAASGINFQGNAMGWSRQAPGKERELVASITAGGDTTYYADSVKGRFTISRDNAKNTVYFQMNSLKPEDTAVYYCATRLYGYWPYGFDYWGQGTQVTVSS | low polyreactivity |
| QVQLVESGGGLVHAGCRLRLSCAPSGSILYYNAMGGYRQAPGNERELVAAITSGGSTYADSVKGRFTISRDNAKNTVYLQMYSLKPEDTAVDYCAADLDWSLSVFGTTLEHDDWGQGTQVTVSS | low polyreactivity |
| QVQLVESGGGLVHAGCSLRLSCAASGFTFGVYAMGWYRQAPGKERELVAAISTTVGSTYYADSVKGRFTISRDNAKNTFYLQMNSLKPEDTAVYYCAAEYTVYINYYIYEYWGQGTQVTVSS | low polyreactivity |
| QVQLVESGGGLVHAGCSLRLSCAASVSTFQVYGLGWYRQAPGKEREMVAAISRSGVRTYYADSVKARFTMSRDNAKNTVYLQMNSLKPEDTAVYYCAKTYQSTTSKSGYYYWGQGTQVTVSS | high polyreactivity |
| QVQLVESGGGLVHAGGSHRLSCAASGIIVYVNAMGLYRQAPGKERELVSAITFGGDSTYYADSVKGRFTISRDTAKNTVYLQMNSLKPEDTAVYFCATDGDPAYPELEYWGQGTQVTVSS | low polyreactivity |
| QVQLVESGGGLVHAGGSLLLSCSASGRTFDSNAMGWSRQAPGKERELVAAISGSGDTTYYADSVKGRFTISRDNAKNTVYLQMNSLKPEDTAVYYCADDHDSSGSGYEYWGQGTEVTVSS | low polyreactivity |
| QVQLVESGGGLVHAGGSLRISCAASGSTFPYYAMGWYRQAPVKERELVAAISRSGGSTYYADSVKGRFTISRDNAKNTVYLQMNRLKPEDTAVYYCNARLARWGSYEYNYWGQGTQVNVSS | low polyreactivity |
| QVQLVESGGGLVHAGGSLRISCAPSGLTFLYNAMGWYRQAPGKERELVAAISQSAGSTYYADSVKGRFTISRDNAKNTVYLQMNSLKPEDTAVYYCAAEWDSPDLVIYDYWGQGTQVTVSS | low polyreactivity |
| QVQLVESGGGLVHAGGSLRLICASSGFIFWAYAMGWYRQAPGKERELVAAISNNGVSTYYADSVKGRFTISRDIAKNTVYLQMNSLIPEDTAVYYCGATGVRSKRLASQWKLDYWGQGTQVTVST | high polyreactivity |
| QVQLVESGGGLVHAGGSLRLSCAAAGSTFYYYAMGWYRQAPGKERELVARISDGDSTNYADSVKGRFTISRDNAKNTVYLQMNSLKPEDTAVYYCAAQHWYLGYGYWGQGTQVTVSS | low polyreactivity |
| QVQLVESGGGLVHAGGSLRLSCAACGTTFINYAMGWYRQAPGKVRELVAVITSDDGSTYYADSVKGRFTISRDNAKNTVYLQMNSLKPEDTAVYYCAADYYDQRYRPGPWYDYWGQGTQVTVSS | low polyreactivity |
| QVQLVESGGGLVHAGGSLRLSCAASGFIFPWYAMGWSRQAPGKERELVAIISWDTGSTYYADSVKGRFTISRDNAKNTVYLQINRLKPEDSAVYYCVAYVGSTYSAPEYYWGQGTQVTVSS | low polyreactivity |
| QVQLVESGGGLVHAGGSLRLSCAASGFIYPGNAKGWYIQAPGKERELVAAISNSGSRTYYADSVKGRFTISRDHAMNTVYLQMNSLKPEDTAVYYCNADVDNRGWPYDYWGQGTQVNVSS | low polyreactivity |
| QVQLVESGGGLVHAGGSLRLSCAASGFTCPYYPMGWYRQAPGKERELVDVISRSGGSTYYADSVKGRFTISRDNAKNTVYLQMNSLKPEDTAVYYCAKRYSLTGGKRTGYYWGQGTQVTVSS | high polyreactivity |
| QVQLVESGGGLVHAGGSLRLSCAASGFTFGDNAMGSYRQAPGKERELVADIDSDGSTYYADSVKGRFTISRDNAKNTVYLQMNSLKPEDTAVYYCAKRQAFKQAPYEYWGQCTQVTVSS | low polyreactivity |
| QVQLVESGGGLVHAGGSLRLSCAASGFTFIRYAMGWYRQAPGKERELVAAIRGTGTSTYYADSVKGRFTISRDNAKNTVYFQMNSLKPEDTAVYYCAAVHWWSSSLGMYYWGQGSQVTVSS | low polyreactivity |
| QVQLVESGGGLVHAGGSLRLSCAASGFTFLRYVMGWYRQTPGKERELVAAISYSGGRTYYADSVKGRFTISRDNAKKTVYLQMNSLKPEDTAVYYCAAESFYPAGFRGYWGQGTQVTVSS | high polyreactivity |
| QVQLVESGGGLVHAGGSLRLSCAASGFTFSYYAMVWYREAPGKEREFVAAISRSGGSTYYADSVKGRFTISRDNAKNTVYLQMNSLYPVDTAVYYCATELSYRHGYWGQGTQVSVSS | high polyreactivity |
| QVQLVESGGGLVHAGGSLRLSCAASGFTFTFYAMGWYRQAPGKERELVATISSNGGSTYYADSVKGRFTISRDNAKNTVYLQMNSLKPEDTAVYYCAAITSYYGYYYWGQGTQVTVSS | high polyreactivity |
| QVQLVESGGGLVHAGGSLRLSCAASGGIFPHNVMGWYRQAPGKEREMVAAITWSGGRTYYADSVKGRFTNSRDNAKNTVYFQLNSLKPEDTAVYYCAADPFYLTKSGGWGDYWGQGTQVTVSS | low polyreactivity |
| QVQLVESGGGLVHAGGSLRLSCAASGGTFVYNAMGWYRQAPGKERELVAVISKRGGSTYYADSVKGRFTISRDNAKNTVYLEMISLKPEDTAVYYCAVSYRSFRYYWERYYSWGQGTQVTVSS | high polyreactivity |
| QVQLVESGGGLVHAGGSLRLSCAASGGTLYRYAMGWYRQAPGKERELVAGISSSGGRTYYADSVKGRFTISRDNAKNTVYLQMNSLKPEDTAVYYCAKYWVSSYDYWGQGTQVTVSS | high polyreactivity |

| Sequence | polyreactivity (PSR sort gate) |
| --- | --- |
| QVQLVESGGGLVHAGGSLRLSCAASGIIFRSYAMGWYRQAPGKERELVAGISLSGGSTYYADSVKGLFTISRDNSKNTVYLQMKSLKPEDTAVYYCATRNHYFRALRYGYWGQGTQVTVSS | high polyreactivity |
| QVQLVESGGGLVHAGGSLRLSCAASGIIFSWYAMGWYRQAPGKERELVAAITSDGNTYYADSVKGRFTISRDNAKNTVYLQMNSLKPEDTAVYYCIARTYVRRPLGYWGQGWQVTVSS | high polyreactivity |
| QVQLVESGGGLVHAGGSLRLSCAASGITFERYAMGWYRQAPGKERELVAAITSSGGSTYYADSVKGRFTISRDNAKNTVYLQMNSLKPEDTAVYYCAARTAYTPRHDYWGQGTEVTVSS | high polyreactivity |
| QVQLVESGGGLVHAGGSLRLSCAASGITFYDYDMGWYRQAPGKERELVATITSGGDTNYADSVKGRITISRDNAKNTVYLQMNSLKPEDTAVYYCAAGSFFRDSYARIYRWFYYWGQGTQVTVSS | low polyreactivity |
| QVQLVESGGGLVHAGGSLRLSCAASGRIFAPYAMGWYRQAPGKERELVAAITSRGGSTYYADSVKGRFTISRDTAKNTVYLQMNSLKPEDTAVYYCNADYYGRPYYYWGQGTQVTVSS | high polyreactivity |
| QVQLVESGGGLVHAGGSLRLSCAASGRIFIANTMGWYRQATGKERELVAAITQRGDSTYYADSVKGRCTISRDNAKNTVDLQMNSLKPEDTAVYYCAARYYLSSYVRYNYWGQGTQVTVSS | high polyreactivity |
| QVQLVESGGGLVHAGGSLRLSCAASGRIFQHYAMGWYRKAPGKERELVAAISWRGGSTYYADSVKGRFTISRDNAKNTVYLQMNSLIPEDTAVYYCAAGYPGRNPGFDYWGQGNQVTVSS | high polyreactivity |
| QVQLVESGGGLVHAGGSLRLSCAASGRIFSPYARGWYRQAPGKERELDAAMSGSRGRTYYADSVKGRFTISRDNAKNTEYLLMNRLKPEDTADYYCAAYRAITRANYLDYWGQGTQVTVSS | high polyreactivity |
| QVQLVESGGGLVHAGGSLRLSCAASGRITTYYTMGRYRHAPGKERELVAAISWSGTSTYYADSVKGRFTISRDNAKNTVYLQMNSLKPEATAVYYCNAGWRYPLDSVTDDYWGQGTQVTVSS | high polyreactivity |
| QVQLVESGGGLVHAGGSLRLSCAASGRTFAGNVMGWYIQAPGKEREFVAAISLSGGNTYYADSVKGRFTISRDNAKNTVYLQMNSLKPEDTAVYYCAADYEYSGYGYWGQGTQVTVSS | high polyreactivity |
| QVQLVESGGGLVHAGGSLRLSCAASGRTFHGYAMGWYIQAPGKERELVAAITSSGARTYYADSVKGRFTISRDNAKNTVYLQMNSLKPEDTAVYYCAVNWLRGMDWGQGTQVTVSS | high polyreactivity |
| QVQLVESGGGLVHAGGSLRLSCAASGRTFLLYAMGWYRQAPGKERELVARITGRGGRTYYADSVKGRFTISRDNAKNTVYLQMNSLKPEDTAVYYCNAKGYQGQWERYDYWGQGTQVTVSS | high polyreactivity |
| QVQLVESGGGLVHAGGSLRLSCAASGRTFQWNRMVWYRQAPGKERELVATIRRGGSTNYADSVKGRFTISRDNAKNTVYLQMNSLKPEDTAVYYCAADRRYPGGWGFEYNYWGQGTQVTVSS | low polyreactivity |
| QVQLVESGGGLVHAGGSLRLSCAASGRTFWSYSMGWYRQAPGKEREFVAAISRRGGITYYADSVKGRFTISRDNAKTTVYLQMNSLKPEDTAVFYCAKGALSYYGGQVKYDYWGQGTQVTVSS | high polyreactivity |
| QVQLVESGGGLVHAGGSLRLSCAASGRTFWYYAMGWYRQAPGKERELVAAITRGGRTNYADSVKGRFTISRDNAKNTVYLQMNSLKPEDTAVYYCAADYRYPAHSYGYWGQGTQVTVSS | high polyreactivity |
| QVQLVESGGGLVHAGGSLRLSCAASGRTFYAYAMGWYRQAPGKERELVAAISWRGGDTYYADSVKGRFTISRDNAKNTVYLQMNSVKPEVTAVYFCCADVYRYSVYLIRNPMDYWGQGTQVTVSS | low polyreactivity |
| QVQLVESGGGLVHAGGSLRLSCAASGSIFDYYALGWYRQAPGKERDLVASINSSVTGTYYADTVKGRFTISRDNAKNSVYLQMNSLKPEDTAVYYCAVKVYGRSGGYEYWGQGTQVTVSS | low polyreactivity |
| QVQLVESGGGLVHAGGSLRLSCAASGSIFVVYTMGWYRQAPGQERELVAAITQNGGSSTYYADSVKGRFTISRDNAKNTVYLQMNSLKPEDTAVYYCNKDILSPVVRIFKYGYDMDYWGQGTQVTVSS | low polyreactivity |
| QVQLVESGGGLVHAGGSLRLSCAASGSIFYHNPMGWYRQAPGKERELVAAISGRGGSTYYADSVKGRFTISRDNAKHTVYLQMNSLKPEDSAVYYCAADARYQNGGLYYWGQGTHVTVSS | high polyreactivity |
| QVQLVESGGGLVHAGGSLRLSCAASGSIIDRNAMGWYRQAPGKERELVASITRGGSTNYADSVKGRFTISRDNEKNTVYLQMNSLKPEDTAVYYCADDRVYLGMFRYEYWGQGTQVTVSS | high polyreactivity |
| QVQLVESGGGLVHAGGSLRLSCAASGSIYGANDMGWYRKATGKERELVAAITRSGTRTYYADSVKGLFTISRDNAKNTVYLQMNSLKPEDTAVYYCAAVLRLSTLTTDFGYWGQGTQVTVSS | high polyreactivity |
